± gives the standard deviation of the averaged measurements.
Tested on: Saccharomyces cerevisiae
Experiment: protein stability index of tFT-peptide fusion (C-terminal peptide) (PSI (0-1 scale)); higher = more stable (slower turnover)
Conditions: genetic background: cdc53-1; temperature: 37 C
Protocol: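 MPS profiling in S. cerevisiae of the tFT-X12 degron library: putative degron peptides plus stable controls, 12 aa, fused to the C-terminus of a sfGFP-mCherry timer. Cells are FACS-sorted into 8 mCherry/sfGFP bins and deep-sequenced. PSI runs from 0 (unstable) to 1 (stable). Backgrounds are wild type, das1Δ and doa10Δ at 30 °C, and wild type, das1Δ, cdc34-1 and cdc53-1 at 37 °C; 2-3 technical replicates each.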
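Also: PSI is a weighted mean of sequencing reads over stability bins, variants kept only with over 10 reads, mCherry proximal and sfGFP distal, peptide attached via GGGS linker.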

| Sequence | protein stability index |
| --- | --- |
| FSAVVCPTVFLC | 0.725 ± 0.019 |
| FSCWLFMLCVFL | 0.459 ± 0.015 |
| FSIFFFLLPSSL | 0.559 ± 0.0082 |
| FSLFYYIHLSVA | 0.211 ± 0.02 |
| FSLGGVPYVFFV | 0.694 ± 0.012 |
| FSLWSRRSITVY | 0.0405 ± 0.018 |
| FSPSHMLRIFCY | 0.355 ± 0.067 |
| FSRPTYYFIRHS | 0.696 ± 0.03 |
| FSSRVFLIVGIY | 0.614 ± 0.05 |
| FVCFSFFFPFLL | 0.441 ± 0.0071 |
| FVFCTCSFFFLW | 0.532 ± 0.011 |
| FVSGRFLFFFVL | 0.675 ± 0.0071 |
| FVSSLLPLLTLL | 0.636 ± 0.013 |
| FVVVGVLFLCVG | 0.4122 ± 0.00071 |
| FWFSFSFLCHSY | 0.4491 ± 0.001 |
| FYFLSFLLLLSP | 0.132 ± 0.021 |
| FYGVRFLVCVSA | 0.0332 ± 0.0048 |
| GAWLAVCVVREG | 0.568 ± 0.014 |
| GCILSLCYAVST | 0.569 ± 0.024 |
| GCVTFVLISFCA | 0.306 ± 0.039 |

| Sequence | protein stability index |
| --- | --- |
| GELVLVMYGIWV | 0.47 ± 0.0055 |
| GFESTCSLLCVF | 0.348 ± 0.015 |
| GFFFFHGLCFFV | 0.513 ± 0.028 |
| GFFFWTMCFWVV | 0.349 ± 0.022 |
| GFLVPSSPRCHQ | 0.72 ± 0.039 |
| GFSPLFVLVFGV | 0.486 ± 0.024 |
| GGGSASGWRAAA | 0.735 ± 0.015 |
| GGKTLSIFLRIS | 0.693 ± 0.021 |
| GGLVVYVWGRWS | 0.592 ± 0.025 |
| GGLWRRLCLGVG | 0.4633 ± 0.0012 |
| GGVCVRMECWMG | 0.629 ± 0.018 |
| GGVVGRPWWYVG | 0.79439 ± 0.00012 |
| GIFVRIVCIDVA | 0.183 ± 0.0066 |
| GINYSNKKILVN | 0.6729 ± 0.0015 |
| GLCSGTGARWLV | 0.7667 ± 0.0022 |
| GLPRASPLPIPV | 0.591 ± 0.006 |
| GLRLRCPLLLSL | 0.341 ± 0.018 |
| GLSGFLLLIVLY | 0.256 ± 0.019 |
| GLWLCRGLVRAW | 0.382 ± 0.021 |
| GPFGVGALVCCM | 0.4425 ± 0.00085 |

| Sequence | protein stability index |
| --- | --- |
| GPNWCSVCQGVG | 0.477 ± 0.028 |
| GPPPAPSPTPSP | 0.7253 ± 0.0049 |
| GPTLLVSRIAVI | 0.517 ± 0.024 |
| GQLIYQHIFILG | 0.6481 ± 0.0016 |
| GRPYHLCLFSCF | 0.754 ± 0.013 |
| GRRLGLLNLLSY | 0.744 ± 0.0023 |
| GRSVGVTMFKNG | 0.7332 ± 0.0067 |
| GRWLYSACVALN | 0.71 ± 0.014 |
| GSRVICMVVATM | 0.611 ± 0.016 |
| GTRREFVILYLF | 0.675 ± 0.027 |
| GVFISFFFVFRF | 0.173 ± 0.037 |
| GVFRYKLILRKM | 0.614 ± 0.018 |
| GVLHSKGPWFSG | 0.757 ± 0.0099 |
| GVLLLGSYQWVG | 0.394 ± 0.021 |
| GVWLRAVRGFGV | 0.7586 ± 0.0013 |
| GWCLGFWCLLVC | 0.0444 ± 0.0049 |
| GWVVWLTGCLVF | 0.592 ± 0.014 |
| GYRGRITRLVNG | 0.715 ± 0.015 |
| GYRYMWLWRLSA | 0.706 ± 0.026 |
| HCLGWCFSRLSS | 0.7199 ± 0.00078 |

Same assay, conditions: genetic background: das1 deletion; temperature: 30 C

| Sequence | protein stability index |
| --- | --- |
| FSAVVCPTVFLC | 0.603 ± 0.015 |
| FSCWLFMLCVFL | 0.401 ± 0.013 |
| FSIFFFLLPSSL | 0.448 ± 0.017 |
| FSLFYYIHLSVA | 0.169 ± 0.034 |
| FSLGGVPYVFFV | 0.587 ± 0.024 |
| FSLWSRRSITVY | 0.104 ± 0.042 |
| FSPSHMLRIFCY | 0.286 ± 0.033 |
| FSRPTYYFIRHS | 0.658 ± 0.038 |
| FSSRVFLIVGIY | 0.33 ± 0.029 |
| FVCFSFFFPFLL | 0.37 ± 0.033 |
| FVFCTCSFFFLW | 0.421 ± 0.026 |
| FVSGRFLFFFVL | 0.489 ± 0.018 |
| FVSSLLPLLTLL | 0.608 ± 0.032 |
| FVVVGVLFLCVG | 0.278 ± 0.023 |
| FWFSFSFLCHSY | 0.358 ± 0.032 |
| FYFLSFLLLLSP | 0.182 ± 0.024 |
| FYGVRFLVCVSA | 0.111 ± 0.037 |
| GAWLAVCVVREG | 0.398 ± 0.023 |
| GCILSLCYAVST | 0.332 ± 0.026 |
| GCVTFVLISFCA | 0.225 ± 0.03 |

| Sequence | protein stability index |
| --- | --- |
| GELVLVMYGIWV | 0.29 ± 0.028 |
| GFESTCSLLCVF | 0.314 ± 0.036 |
| GFFFFHGLCFFV | 0.382 ± 0.029 |
| GFFFWTMCFWVV | 0.303 ± 0.038 |
| GFLVPSSPRCHQ | 0.6427 ± 0.0046 |
| GFSPLFVLVFGV | 0.312 ± 0.027 |
| GGGSASGWRAAA | 0.633 ± 0.0096 |
| GGKTLSIFLRIS | 0.554 ± 0.022 |
| GGLVVYVWGRWS | 0.383 ± 0.016 |
| GGLWRRLCLGVG | 0.388 ± 0.018 |
| GGVCVRMECWMG | 0.486 ± 0.032 |
| GGVVGRPWWYVG | 0.677 ± 0.014 |
| GIFVRIVCIDVA | 0.178 ± 0.032 |
| GINYSNKKILVN | 0.493 ± 0.027 |
| GLCSGTGARWLV | 0.636 ± 0.027 |
| GLPRASPLPIPV | 0.447 ± 0.021 |
| GLRLRCPLLLSL | 0.315 ± 0.049 |
| GLSGFLLLIVLY | 0.239 ± 0.02 |
| GLWLCRGLVRAW | 0.299 ± 0.021 |
| GPFGVGALVCCM | 0.333 ± 0.032 |

| Sequence | protein stability index |
| --- | --- |
| GPNWCSVCQGVG | 0.43 ± 0.011 |
| GPPPAPSPTPSP | 0.676 ± 0.021 |
| GPTLLVSRIAVI | 0.368 ± 0.039 |
| GQLIYQHIFILG | 0.47 ± 0.011 |
| GRPYHLCLFSCF | 0.646 ± 0.036 |
| GRRLGLLNLLSY | 0.625 ± 0.013 |
| GRSVGVTMFKNG | 0.627 ± 0.017 |
| GRWLYSACVALN | 0.596 ± 0.022 |
| GSRVICMVVATM | 0.463 ± 0.041 |
| GTRREFVILYLF | 0.525 ± 0.016 |
| GVFISFFFVFRF | 0.269 ± 0.035 |
| GVFRYKLILRKM | 0.586 ± 0.015 |
| GVLHSKGPWFSG | 0.652 ± 0.0073 |
| GVLLLGSYQWVG | 0.368 ± 0.029 |
| GVWLRAVRGFGV | 0.646 ± 0.013 |
| GWCLGFWCLLVC | 0.123 ± 0.02 |
| GWVVWLTGCLVF | 0.446 ± 0.022 |
| GYRGRITRLVNG | 0.639 ± 0.0079 |
| GYRYMWLWRLSA | 0.665 ± 0.036 |
| HCLGWCFSRLSS | 0.653 ± 0.021 |

Reference: the supplement of paper PMC10724198
